From the supplement of paper PMC9112550, “Optimization of the antimicrobial peptide Bac7 by deep mutational scanning” (BMC Biology, 2022)

system: Escherichia coli TOP10; assay: shrunken log2 fold change of peptide-encoding DNA abundance (4.5 h post-induction vs induction); higher = less antimicrobial activity (less host growth inhibition); conditions: time post-induction: 4.5 h; library: site-saturation at positions 5, 18, 19, 20
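Further: peptides expressed intracellularly from a pBAD plasmid library in pooled LB shake-flask culture, induced with 0.3% L-arabinose, DNA abundance read by NGS, three biological replicates, DESeq2 with apeglm shrinkage.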

Sequence | shrunken log2 fold change
RRIRCRPPRLPRPRPRPEPRPRP | 0.61
RRIRIRPPRLPRPRPRPSALPRP | -0.832
RRIRSRPPRLPRPRPRPQNHPRP | -0.604
RRIRHRPPRLPRPRPRPLEVPRP | -0.184
RRIRRRPPRLPRPRPRPATFPRP | 0.0785
RRIRLRPPRLPRPRPRPAYQPRP | -0.142
RRIRCRPPRLPRPRPRPDPPPRP | 0.52
RRIRFRPPRLPRPRPRPGRPPRP | 0.514
RRIRDRPPRLPRPRPRPQSWPRP | -0.0644
RRIRRRPPRLPRPRPRPIILPRP | -0.406
RRIRARPPRLPRPRPRPPLDPRP | 1
RRIRQRPPRLPRPRPRPAWGPRP | 0.34
RRIRCRPPRLPRPRPRPFNTPRP | -0.2
RRIRNRPPRLPRPRPRPWLIPRP | -0.0217
RRIRSRPPRLPRPRPRPNMVPRP | -0.0658
RRIRKRPPRLPRPRPRPLFHPRP | 0.0214
RRIRARPPRLPRPRPRPIPQPRP | -0.0224
RRIRNRPPRLPRPRPRPWMKPRP | -0.0173
RRIRERPPRLPRPRPRPGWTPRP | 0.0709
RRIRARPPRLPRPRPRPFFPPRP | 0.527
RRIRERPPRLPRPRPRPHYEPRP | -0.231
RRIRSRPPRLPRPRPRPNGRPRP | -0.0415
RRIRIRPPRLPRPRPRPCNVPRP | -0.449
RRIRKRPPRLPRPRPRPQTMPRP | 0.0588
RRIRSRPPRLPRPRPRPHSRPRP | -0.322

Sequence | shrunken log2 fold change
RRIRPRPPRLPRPRPRPHNEPRP | -0.397
RRIRTRPPRLPRPRPRPSIFPRP | -0.122
RRIRFRPPRLPRPRPRPIIAPRP | -0.413
RRIRDRPPRLPRPRPRPGMCPRP | 0.432
RRIRRRPPRLPRPRPRPMKMPRP | 0.18
RRIRDRPPRLPRPRPRPHMVPRP | -0.195
RRIRMRPPRLPRPRPRPHECPRP | 0.0178
RRIRFRPPRLPRPRPRPVMQPRP | -0.0242
RRIRQRPPRLPRPRPRPWFRPRP | -0.145
RRIRVRPPRLPRPRPRPNQYPRP | -0.864
RRIRKRPPRLPRPRPRPQEQPRP | 0.225
RRIRWRPPRLPRPRPRPGRDPRP | 0.122
RRIRRRPPRLPRPRPRPNVFPRP | 0.426
RRIRFRPPRLPRPRPRPHDDPRP | -0.531
RRIRIRPPRLPRPRPRPTGLPRP | 0.375
RRIRMRPPRLPRPRPRPVIHPRP | 0.0153
RRIRLRPPRLPRPRPRPASNPRP | -0.124
RRIRCRPPRLPRPRPRPWIPPRP | -0.457
RRIRNRPPRLPRPRPRPCWDPRP | 0.125
RRIRQRPPRLPRPRPRPEALPRP | -0.0434
RRIRNRPPRLPRPRPRPPPLPRP | 0.732
RRIRNRPPRLPRPRPRPPWFPRP | 0.349
RRIRVRPPRLPRPRPRPGWNPRP | -0.0405
RRIRHRPPRLPRPRPRPISRPRP | -0.0532
RRIRTRPPRLPRPRPRPIYQPRP | -0.364

Sequence | shrunken log2 fold change
RRIRLRPPRLPRPRPRPMNSPRP | -0.406
RRIRNRPPRLPRPRPRPQAYPRP | -0.3
RRIRQRPPRLPRPRPRPVSLPRP | -0.131
RRIRKRPPRLPRPRPRPMPWPRP | 0.321
RRIRNRPPRLPRPRPRPLKQPRP | 0.114
RRIRWRPPRLPRPRPRPVIGPRP | 0.183
RRIRHRPPRLPRPRPRPAWRPRP | 0.654
RRIRHRPPRLPRPRPRPPHMPRP | -0.115
RRIRKRPPRLPRPRPRPEPTPRP | 1.47
RRIRQRPPRLPRPRPRPFCFPRP | 0.117
RRIRNRPPRLPRPRPRPNEMPRP | -0.00174
RRIRKRPPRLPRPRPRPECYPRP | -0.0555
RRIRQRPPRLPRPRPRPKKKPRP | -0.0791
RRIRLRPPRLPRPRPRPELYPRP | -0.0383
RRIRNRPPRLPRPRPRPMMSPRP | 0.0191
RRIRSRPPRLPRPRPRPNIWPRP | -0.0665
RRIRSRPPRLPRPRPRPKPKPRP | 0.545
RRIRTRPPRLPRPRPRPYVSPRP | -0.244
RRIRVRPPRLPRPRPRPLPRPRP | 0.642
RRIRRRPPRLPRPRPRPRHKPRP | 1.89
RRIRIRPPRLPRPRPRPTGTPRP | -0.109
RRIRVRPPRLPRPRPRPDWAPRP | 0.133
RRIRIRPPRLPRPRPRPAQPPRP | 0.213
RRIRLRPPRLPRPRPRPESSPRP | -0.015
RRIRGRPPRLPRPRPRPVLDPRP | 0.419

Sequence | shrunken log2 fold change
RRIRCRPPRLPRPRPRPHFAPRP | 0.0672
RRIRQRPPRLPRPRPRPQFRPRP | -0.0194
RRIRGRPPRLPRPRPRPKGHPRP | 0.67
RRIRKRPPRLPRPRPRPKMMPRP | 0.421
RRIRHRPPRLPRPRPRPVNLPRP | -0.0241
RRIRVRPPRLPRPRPRPAISPRP | -0.122
RRIRMRPPRLPRPRPRPLFVPRP | 0.286
RRIRNRPPRLPRPRPRPDDEPRP | -0.00101
RRIRHRPPRLPRPRPRPYGNPRP | -0.298
RRIRQRPPRLPRPRPRPIPKPRP | -0.0574
RRIRVRPPRLPRPRPRPFHSPRP | 0.0749
RRIRQRPPRLPRPRPRPINKPRP | -0.318
RRIRHRPPRLPRPRPRPPNMPRP | -0.0135
RRIRLRPPRLPRPRPRPPKYPRP | -0.154
RRIRDRPPRLPRPRPRPQRAPRP | 0.0568
RRIRERPPRLPRPRPRPPEDPRP | 2.12
RRIRLRPPRLPRPRPRPGGEPRP | 0.343
RRIRERPPRLPRPRPRPSAYPRP | -0.354
RRIRYRPPRLPRPRPRPHPVPRP | -0.185
RRIRIRPPRLPRPRPRPNIKPRP | -1.05
RRIRRRPPRLPRPRPRPDMLPRP | -0.0772
RRIRRRPPRLPRPRPRPARQPRP | -0.0115
RRIRDRPPRLPRPRPRPPIRPRP | 0.173
RRIRTRPPRLPRPRPRPWQKPRP | -0.1
RRIRLRPPRLPRPRPRPLMGPRP | -0.0491

Sequence | shrunken log2 fold change
RRIRPRPPRLPRPRPRPPKVPRP | 0.122
RRIRQRPPRLPRPRPRPEYDPRP | -0.168
RRIRVRPPRLPRPRPRPRNEPRP | 0.115
RRIRQRPPRLPRPRPRPRCDPRP | -0.255
RRIRARPPRLPRPRPRPCYVPRP | -0.279
RRIRMRPPRLPRPRPRPLICPRP | 0.108
RRIRERPPRLPRPRPRPYMFPRP | -0.736
RRIRARPPRLPRPRPRPKPAPRP | 0.711
RRIRKRPPRLPRPRPRPFSNPRP | -0.411
RRIRMRPPRLPRPRPRPVKQPRP | 0.0432
RRIRSRPPRLPRPRPRPVWMPRP | 0.396
RRIRWRPPRLPRPRPRPEPTPRP | 0.857
RRIRFRPPRLPRPRPRPVNYPRP | 0.184
RRIRLRPPRLPRPRPRPLDWPRP | 0.124
RRIRKRPPRLPRPRPRPEINPRP | 0.0365
RRIRRRPPRLPRPRPRPTMWPRP | 0.364
RRIRQRPPRLPRPRPRPANKPRP | -0.397
RRIRKRPPRLPRPRPRPKYQPRP | 0.0989
RRIRMRPPRLPRPRPRPFFIPRP | -0.247
RRIRWRPPRLPRPRPRPHREPRP | -0.0345
RRIRLRPPRLPRPRPRPENVPRP | -0.0483
RRIRLRPPRLPRPRPRPHFSPRP | -0.189
RRIRFRPPRLPRPRPRPWQFPRP | -0.333
RRIRFRPPRLPRPRPRPEQSPRP | 0.0672
RRIRKRPPRLPRPRPRPFDKPRP | 0.132

Sequence | shrunken log2 fold change
RRIRFRPPRLPRPRPRPIPTPRP | 0.0793
RRIRMRPPRLPRPRPRPENHPRP | 0.0929
RRIRNRPPRLPRPRPRPSMGPRP | -0.0455
RRIRDRPPRLPRPRPRPDLNPRP | -0.041
RRIRERPPRLPRPRPRPPCYPRP | -0.396
RRIRRRPPRLPRPRPRPYFAPRP | 0.487
RRIRLRPPRLPRPRPRPKFMPRP | 0.149
RRIRMRPPRLPRPRPRPYFGPRP | -0.138
RRIRWRPPRLPRPRPRPEMHPRP | 0.952
RRIRWRPPRLPRPRPRPGCPPRP | 0.0461
RRIRPRPPRLPRPRPRPEHIPRP | 0.149
RRIRNRPPRLPRPRPRPHRIPRP | -0.0314
RRIRSRPPRLPRPRPRPQVMPRP | -0.193
RRIRLRPPRLPRPRPRPRYDPRP | 0.0436
RRIRSRPPRLPRPRPRPCRKPRP | -0.012
RRIRPRPPRLPRPRPRPFEAPRP | -0.105
RRIRGRPPRLPRPRPRPPCIPRP | 0.117
RRIRNRPPRLPRPRPRPVGWPRP | 0.855
RRIRPRPPRLPRPRPRPWHGPRP | 0.0257
RRIRPRPPRLPRPRPRPLLCPRP | 0.127
RRIRRRPPRLPRPRPRPGDMPRP | 0.0846
RRIRWRPPRLPRPRPRPTKHPRP | -0.118
RRIRYRPPRLPRPRPRPGHLPRP | -0.0798
RRIRTRPPRLPRPRPRPNGDPRP | -0.0598
RRIRNRPPRLPRPRPRPQPKPRP | 0.0668
